Experimental data from US20240150440A1 (LUMEN BIOSCIENCE, published 2024).

How the values were obtained:
[1] = biological target: T1, SARS-CoV-2 spike protein on pseudotyped lentivirus (Wuhan Reference Pseudovirus) (SARS-CoV-2, UniProt P0DTC2 14-1273); test: cell-based or functional assay
[2] = biological target: T2, recombinant SARS-CoV-2 RBD with C-terminal AviTag (SARS-CoV-2, UniProt P0DTC2 319-541); test: BLI, biotinylated RBD on streptavidin biosensors; BLD: below limit of detection
[3] = biological target: T2, recombinant SARS-CoV-2 RBD with …; test: BLI, biotinylated RBD on streptavidin biosensors [Cont. 1]
[4] = biological target: T2, recombinant SARS-CoV-2 RBD with …; test: BLI, biotinylated RBD on streptavidin biosensors; OR: over-range
[5] = biological target: T1, SARS-CoV-2 spike protein on pseudotyped …; test: cell-based or functional assay; remark: listed apart in the source
[6] = biological target: T2, recombinant SARS-CoV-2 RBD with …; test: BLI, biotinylated RBD on streptavidin biosensors
[7] = biological target: T2, recombinant SARS-CoV-2 RBD with …; test: ELISA, competition with coated ACE2-Fc for RBD
[8] = biological target: T2, recombinant SARS-CoV-2 RBD with …; test: BLI, biotinylated RBD on streptavidin biosensors, global 1:1 fit
[9] = biological target: T2, recombinant SARS-CoV-2 RBD with …; test: ELISA, competition with coated human ACE2-FC for RBD-AviTag
[10] = biological target: T1, SARS-CoV-2 spike protein on pseudotyped …; test: cell-based or functional assay; remark: listed apart in the source
[11] = biological target: T1, SARS-CoV-2 spike protein on pseudotyped …; test: cell-based or functional assay; remark: listed apart in the source
[12] = biological target: T2, recombinant SARS-CoV-2 RBD with …; test: BLI, biotinylated RBD on streptavidin biosensors [Cont. 5]
[13] = biological target: T2, recombinant SARS-CoV-2 RBD with …; test: ELISA, competition with coated ACE2-Fc for RBD [Cont. 5]
[14] = biological target: T2, recombinant SARS-CoV-2 RBD with …; test: BLI, biotinylated RBD on streptavidin biosensors [Cont. 3]
[15] = biological target: T3, SARS-CoV-2 Alpha Variant RBD (SARS-CoV-2 Alpha variant); test: ELISA, RBD coated
T3 construct: domain: RBD; coated on ELISA plates

[16] = biological target: T4, SARS-CoV-2 Beta Variant RBD (SARS-CoV-2 Beta variant); test: ELISA, RBD coated
T4 construct: domain: RBD; coated on ELISA plates

[17] = biological target: T5, SARS-CoV-2 Gamma Variant RBD (SARS-CoV-2 Gamma variant); test: ELISA, RBD coated
T5 construct: domain: RBD; coated on ELISA plates

[18] = biological target: SARS-CoV-2 Gamma Variant spike protein on pseudotyped lentivirus (SARS-CoV-2 Gamma variant); test: cell-based or functional assay
[19] = biological target: T1, SARS-CoV-2 spike protein on pseudotyped …; test: cell-based or functional assay; remark: listed apart in the source
[20] = biological target: T2, recombinant SARS-CoV-2 RBD with …; test: BLI, biotinylated RBD on streptavidin biosensors [Cont. 2]
[21] = biological target: T2, recombinant SARS-CoV-2 RBD with …; test: ELISA, competition with coated ACE2-Fc for RBD [Cont. 2]
[22] = biological target: T6, SARS-CoV-2 Delta Variant RBD (SARS-CoV-2 Delta variant); test: ELISA, RBD coated
T6 construct: domain: RBD; coated on ELISA plates

[23] = biological target: SARS-CoV-2 Delta Variant spike protein on pseudotyped lentivirus (SARS-CoV-2 Delta variant); test: cell-based or functional assay
[24] = biological target: T1, SARS-CoV-2 spike protein on pseudotyped …; test: cell-based or functional assay; remark: listed apart in the source
[25] = biological target: T1, SARS-CoV-2 spike protein on pseudotyped …; test: cell-based or functional assay; remark: listed apart in the source
[26] = biological target: T2, recombinant SARS-CoV-2 RBD with …; test: ELISA, competition with coated ACE2-Fc for RBD [Cont. 1]

B1: PP802 MBP-R2A-C5-H6 (VHH)
VHH: QVQLVESGGGLVQPGGSLRLSCAASGTWGNIQYLSWFRQAPGKRREFVAAITPNNGTNYADSVKGRFTISRDNAKNTVYLQMNSLKPEDTAVYYCTAVLWYTTKEGPYDYWGQGTQVTVSS
notes: Form: Monomer
- infectivity % under 10 ug/mL VHH treatment [1]: 87.8%
- Kd [2]: ~23000 nM

B2: MBP-5HVZ-R2A-C5-H6 (VHH, not shown: large carriers; small tags and cut ends)
VHH: B1 VHH
- Kd [2]: ~3250 nM

B3: PP813 MBP-R2E-D2-H6 (VHH)
VHH: QVQLVESGGGLVQPGGSLRLSCAASGHQLSTNATHWFRQAPGKNREFVASIGSGSSSYYADSVKGRFTISRDNAKNTVYLQMNSLKPEDTAVYYCTALGGDELDGMTYDYWGQGTQVTVSS
notes: Form: Monomer
- infectivity % under 10 ug/mL VHH treatment [1]: 75.5%
- Kd [3]: 100 nM

B4: PP803 MBP-R2A-F3-H6 (VHH)
VHH: QVQLVESGGGLVQPGGSLRLSCAASGSITSINWMHWFRQAPGKDREGVASISQTGRGSYADSVKGRFTISRDNAKNTVYLQMNSLKPEDTAVYYCAAASRTGTPYNYWGQGTQVTVSS
notes: Form: Monomer
- infectivity % under 10 ug/mL VHH treatment [1]: 70.7%
- Kd [4]: ~1900 nM

B5: dimeric VHH (VHH-5HVZ-MBP) R2A-F3 (VHH)
VHH: B4 VHH
- Pseudovirus inhibition IC50 [5]: 272 nM
- Kd [6]: 5.66 nM
- IC50 [7]: 1.6 nM
- Kd [8]: 5.7 nM
- IC50 (read off the curve) [9]: ~2 nM

B6: PP807 MBP-R2C-B3-H6 (VHH)
VHH: QVQLVESGGGLVQPGGSLRLSCAASGTYASYETIAWYRQAPGKQREKVARITGAGSSFYADSVKGRFTISRDNAKNTVYLQMNSLKPEDTAVYYCNADSIPPALRAANTGYWGQGTQVTVSS
notes: Form: Monomer
- infectivity % under 10 ug/mL VHH treatment [1]: 75.3%
- IC50 [7]: 148 nM
- Kd [4]: ~950 nM

B7: PP1140 MBP-4B0F-PAPA-R5d-B6-H6 (VHH)
VHH: QVQLVESGGGLVQPGGSLRLSCAASGRILAANIVHWYRQAPGKEREGVAGITSGGGSYYADSVKGRFTISRDNAKNTVYLQMNSLKPEDTAVYYCNALGLGQSSLYRSADPYDSWGQGTQVTVSS
notes: Form: Heptamer
- infectivity % under 10 ug/mL VHH treatment [1]: 2.47%
- Pseudovirus neutralization IC50 [10]: 2.07 nM
- Pseudovirus inhibition IC50 [Cont. 5] [11]: 7.04 nM

B8: PP846 MBP-R5D-G6-H6 (VHH)
VHH: QVQLVESGGGLVQPGGSLRLSCAASGRILAANIVHWYRQAPGKNREGVAGITSGGSTYYADSVKGRFTISRDNAKNTVYLQMNSLKPEDTAVYYCAAKPLGSPDDFDYWGQGTQVTVSS
notes: Form: Monomer
- infectivity % under 10 ug/mL VHH treatment [1]: 77.1%
- Kd [12]: 564 nM
- IC50 [13]: 7.5 nM

B9: PP826 MBP-R5C-A2-H6 (VHH)
VHH: QVQLVESGGGLVQPGGSLRLSCAASGDIFSKNAMHWVRQAPGKQREFVAGIYSDGSSLYADSVKGRFTISRDNAKNTVYLQMNSLKPEDTAVYYCAALDYSARYRTWGQGTQVTVSS
notes: Form: Monomer
- infectivity % under 10 ug/mL VHH treatment [1]: 70.6%
- Kd [14]: 420 nM

B10: PP1107 MBP-5HVZ-PAPA-RN-22-H6 (VHH)
VHH: QVQLVESGGGLVQPGGSLRLSCAASGSISEINLLHWFRQAPGKQREWVATMTSGGSTDYADSVKGRFTISRDNAKNTVYLQMNSLKPEDTAVYYCAADEFTKYGHGRYWGQGTQVTVSS
notes: Form: Dimer
- EC50 [15]: 0.28 nM
- EC50 [16]: 0.25 nM
- EC50 [17]: 0.18 nM
- infectivity % under 10 ug/mL VHH treatment [1]: 34.3%
- Pseudovirus neutralization IC50 [10]: 32.9 nM
- Pseudovirus neutralization IC50 [18]: 0.649 nM
- Pseudovirus inhibition IC50 [Cont. 9] [19]: 110 nM

B11: PP1113 MBP-5HVZ-PAPA-RN-29-H6 (VHH)
VHH: QVQLVESGGGLVQPGGSLRLSCAASGYILSENLTAWFRQAPGKAREVVATVTSGDYTNYDDSVKGRFTISRDNAKNTVYLQMNSLKPEDTAVYYCAAGTSDWEVKWSHWGQGTQVTVSS
notes: Form: Dimer
- EC50 [15]: 0.72 nM
- EC50 [16]: 5.64 nM
- EC50 [17]: 3.37 nM
- infectivity % under 10 ug/mL VHH treatment [1]: 6.25%
- Pseudovirus neutralization IC50 [10]: 7.09 nM
- Pseudovirus inhibition IC50 [Cont. 9] [19]: 9.38 nM

B12: PP819 MBP-R5A-C5-H6 (VHH)
VHH: QVQLVESGGGLVQPGGSLRLSCAASGDIFSINALHWFRQAPGKQREEVAAITSGGSTGYADSVKGRFTISRDNAKNTVYLQMNSLKPEDTAVYYCAAQQARGGLDSDYWGQGTQVTVSS
notes: Form: Monomer
- infectivity % under 10 ug/mL VHH treatment [1]: 54.1%
- Kd [20]: 42.1 nM
- IC50 [21]: 71.9 nM

B13: R5D-D4 (competition ELISA sample) (VHH)
VHH: QVQLVESGGGLVQPGGSLRLSCAASGSDFTINAMHWFRQAPGKQREFVATITSTSSTAYRDSVKGRFTISRDNAKNTVYLQMNSLKPEDTAVYYCAAFAVRDADTAGWTARDYWGQGTQVTVSS
- Pseudovirus inhibition IC50 [Cont. 5] [11]: 166 nM
- Kd [12]: 130 nM
- IC50 [13]: 48.1 nM
- Kd [8]: 130 nM

B14: PP1150 MBP-5HVZ-PAPA-R5b-G1-H6 (VHH)
VHH: QVQLVESGGGLVQPGGSLRLSCAASGSIGQIVLVHWFRQAPGKQRELVAGITSPSSTYYADSVKGRFTISRDNAKNTVYLQMNSLKPEDTAVYYCNTELEGKTQGFTGKTVWYDYWGQGTQVTVSS
notes: Form: Dimer
- EC50 [15]: 20.1 nM
- EC50 [22]: 0.86 nM
- infectivity % under 10 ug/mL VHH treatment [1]: 2.31%
- Pseudovirus neutralization IC50 [10]: 2.72 nM
- Pseudovirus neutralization IC50 [23]: 0.43 nM
- Pseudovirus inhibition IC50 [Cont. 3] [24]: 2.33 nM

B15: PP822 MBP-R5A-E5-H6 (VHH)
VHH: QVQLVESGGGLVQPGGSLRLSCAASGYDFDILRMAWFRQAPGKEREMVAAITSAESVNYEDSVKGRFTISRDNAKNTVYLQMNSLKPEDTAVYYCATYDYTDDYGYASWGQGTQVTVSS
notes: Form: Monomer
- infectivity % under 10 ug/mL VHH treatment [1]: 71.6%
- Kd [20]: 6.97 nM
- IC50 [21]: 183 nM

B16: dimeric VHH (VHH-5HVZ-MBP) R2C-G6 (VHH)
VHH: QVQLVESGGGLVQPGGSLRLSCAASGSIYKYSDVHWFRQAPGKAREAVALLTGAGTTIYGDSVKGRFTISRDNAKNTVYLQMNSLKPEDTAVYYCAAGQGFKATRTFDSWGQGTQVTVSS
- Pseudovirus inhibition IC50 [Cont. 1] [25]: 134 nM
- Kd [3]: 35.7 nM
- IC50 [26]: 3.9 nM
